This note sets out measurements from patent publication US5453371.

For the experiment, the target named is 4-phenylazo-benzyloxycarbonyl-L-Pro-Leu-Gly-L-Pro-D-Arg.HCl.

The substance “Achromobacter collagenase gene product of Vibrio alginolyticus produced in recombinant Escherichia coli JM109 (plasmid pHUC14 or pLCO-1) (enzyme)” returned a Collagenase activity of 189 U.
